“And” between values parts separate entries of the source, which are not always exact repeats. Equal values may be shown once.
Tests used:
[1] = target: SARS-CoV-2 RBD.mmh (Spike amino acids Arg319-Phe541 with C-terminal myc-myc-6-Histidine tag) (SARS-CoV-2, UniProt P0DTC2 319-541)
[2] = target: T1, SARS-COV-2 RBD-MMH (SARS-COV-2 RBD extracellular domain with C-terminal myc-myc-hexahistidine tag) (SARS-CoV-2)
[3] = target: T1, SARS-COV-2 RBD-MMH (SARS-COV-2 RBD …); assay: SPR 37C, mAb captured, pH 7.4 vs pH 6.0
[4] = target: human FcγR3a 176Val allotype receptor (human, UniProt P08637 17-254); assay: cell-based or functional assay
[5] = target: SARS-COV-2 RBD-MMH (SARS-CoV-2); assay: SPR 37C, run with dissociation at pH 5.0
[6] = target: SARS-COV-2 RBD-MMH (SARS-CoV-2); assay: SPR 37C, run with dissociation at pH 7.4

Binder | IC50 [1] | koff [2] | t½ at pH 6.0 [2] | t½ at pH 7.4 [2] | t½ Ratio of pH 7.4 to pH 6.0 [3] | EC50 (M), Jurkat/CD20/spike [4] | Fold induction, Jurkat CD20 [4] | Fold induction, Jurkat/CD20/spike [4] | RBD.mmh Bound at pH 7.4 (RU) [5] | koff [5] | t½ [5] | RBD.mmh Bound at pH 7.4 (RU) [6] | koff [6]
mAb14234 (antibody, V domains shown) VH: QVQLVESGGGVVQPGRSLRLSCAASGFTFSSYGIHWVRQAPGKGLEWVAIIWYDGSEKYYADSVKGRFTISRDNSKNTLFLQMNSLEAEDTAVYYCARGPDLLTGYYNYFYYGMDVWGQGTTVTVSS VL: QSVLTQPPSVSGAPGQRVTISCTGSSSNIGIGYDVHWYQQLPGTVPKLLIYGNTNRPSGVPDRFSGSKSGTSASLAITGLQAEDEADYYCQSYDSSLSSYVFGTGTKVTVLG | 4.62 nM | 0.00143 s⁻¹ | 8.1 min | 5.2 min | 0.6 | – | – | – | – | – | – | – | –
mAb14232 (antibody) heavy: not shown light: QSALTQPPSASGSPGQSVTISCTATSSDVGNYNYVSWYQQHPGKAPKLMIYEVTKRPSGVPDRFSGSKSGNTASLTVSGLQAEDEADYYCSSYAGSWGVFGGGTKLTVLGQPKAAPSVTLFPPSSEELQANKATLVCLISDFYPGAVTVAWKADSSPVKAGVETTTPSKQSNNKYAASSYLSLTPEQWKSHRSYSCQVTHEGSTVEKTVAPTECS | – | – | – | – | – | 1.31e-10 M | 1.2 fold | 10.8 fold | 10.1 RU | 0.000656 s⁻¹ | 17.6 min | 8.2 RU | 0.0311 s⁻¹
mAb14290 (antibody) heavy: not shown light: EIVLTQSPGTLSLSPGERATLSCRASQSVNNNYLAWYQQKPGQTPRLLIYGASSRATGIPDRFSGSGSGTDFTLTITRLEPEDFAVYHCQQYGRSPTTFGQGTRLEIKRTVAAPSVFIFPPSDEQLKSGTASVVCLLNNFYPREAKVQWKVDNALQSGNSQESVTEQDSKDSTYSLSSTLTLSKADYEKHKVYACEVTHQGLSSPVTKSFNRGEC | – | – | – | – | – | 3.42e-09 M | 1 fold | 9.5 fold | – | – | – | – | –
mAb14314 (antibody) heavy: not shown light: QSVLTQPPSVSAAPGQKVTISCSGSISNIGNNYVSWYQQLPGTAPKLLIYDNDKRPSGIPDRFSGSRSGTSATLGITGLQTGDEADYYCGTWDSSLTAYVFGTGTKVTVLGQPKAAPSVTLFPPSSEELQANKATLVCLISDFYPGAVTVAWKADSSPVKAGVETTTPSKQSNNKYAASSYLSLTPEQWKSHRSYSCQVTHEGSTVEKTVAPTECS | – | – | – | – | – | – | 1.1 fold | 3.9 fold | – | – | – | – | –
mAb14235 (antibody, V domains shown) VH: QITLKESGPTLVKPTQTLTLTCTFSGFSLNTGGVGVGWIRQPPGNALEWLALIYWDDDKRYNPSLKTRLTISKDTSKNQVVLTMTNMDPVDTATYFCAHLTIAVIVDFWGQGTLVTVSS VL: QSALTQPASVSGSPGQSITISCTATSSDVGTYNYVSWFQHHPGKAPKLMIYEVTNRPSGVSNRFSGSKSGNTASLTISGLQAEDEADYYCSSYTTTSIVFGGGTKLTVLG | 0.234 nM | 0.00114 s⁻¹ | 10.1 min | 7.8 min | 0.8 | – | – | – | – | – | – | – | –
mAb14285 (antibody) heavy: not shown light: QSALTQPASVSGSPGQSITISCTGTSSDVESYNLVSWYQQHPGKAPKLMIYEGSKRPSGVSNRFSGSKSGNTASLTISGLQAEDEADYYCSSYAGSSTWVFGGGTKLTVLGQPKAAPSVTLFPPSSEELQANKATLVCLISDFYPGAVTVAWKADSSPVKAGVETTTPSKQSNNKYAASSYLSLTPEQWKSHRSYSCQVTHEGSTVEKTVAPTECS | – | – | – | – | – | 2.43e-10 M | 1.1 fold | 11 fold | 51.5 RU | 0.0025 s⁻¹ | 4.6 min | 64.2 RU | 0.0258 s⁻¹
mAb13458 (antibody, V domains shown) VH: EVQLVESGGGLVQPGRSLRLSCAASGFTFDDYAMHWVRQAPGKGLEWVSGISWNSGSIGYADSVKGRFTISRDNAKNSLYLQMNSLRAEDTALYYCAKDIGITTPYWGQGTLVTVSS VL: AIQMTQSPSSLSASVGDRVTITCRASQDIRNDLGWYQQKPGKAPKLLIYSASSLQTGVPSRFSGSGSGTDFTLTISSLHPEDFATYYCLQDYWYTWTFGQGTKVEIKR | 0.873 nM | 0.00199 s⁻¹ | 5.8 min | 7.2 min | 1.2 | – | – | – | – | – | – | – | –
mAb13459 (antibody, V domains shown) VH: EVQLVESGGGLVQPGRSLRLSCAASGFTFDDYAMHWVRQAPGKGLEWVSGISWNSGSIGYADSVKGRFTISRDNAKNSLYLQMNSLRAEDTALYYCAKDIGITTPYWGQGTLVTVSS VL: AIQMTQSPSSLSASVGDRVTITCRASQDIRNDLGWYQQKPGKAPKLLIYSASSLQTGVPSRFSGSGSGTDFTLTISSLHPEDFATYYCLQDYNYVWTFGQGTKVEIKR | 4.43 nM | 0.00229 s⁻¹ and 0.00239 s⁻¹ | 4.8 min | 5.1 min | 1.1 | – | – | – | – | – | – | – | –
mAb14288 (antibody) heavy: not shown light: QSVLTQPPSVSAAPGQKVTISCSGSSSNIGNNYVSWYQQLPGTAPKLLIYENNKRPSGIPDRFSGSKSGTSATLGITGLQTGDEADYYCGTWDSSLSAGQGVFGGGTKLTVLGQPKAAPSVTLFPPSSEELQANKATLVCLISDFYPGAVTVAWKADSSPVKAGVETTTPSKQSNNKYAASSYLSLTPEQWKSHRSYSCQVTHEGSTVEKTVAPTECS | – | – | – | – | – | 5.1e-10 M | 1 fold | 6.7 fold | – | – | – | – | –
mAb14230 (antibody, V domains shown) VH: EVQLVESGGGLIQPGRSLRLSCAASGFTFDDYAMHWVRQAPGKGLEWVSGISWNSVSIDYADSVKGRFTISRDNAKNSLYLQMTSLTVEDTALYYCAKAFGYETLTGSDYFAYWGPGTLVTVSS VL: EIVLTQSPGTLSLSPGERATLSCRASQTVISTYLAWYQQKPGQSPRLLIYGASSRATGIPDRFSGSGSGTDFTLTISRLEPEDFAVYYCQQYGSSPQLTFGGGTKVEIKR | 9.97 nM | 0.00797 s⁻¹ | 1.4 min | 1.5 min | 1.1 | – | – | – | – | – | – | – | –
mAb14232 (antibody, V domains shown) VH: QITLKESGPTLVKPTQTLTLTCTFSGFSLSASGVGVGWIRQPPGKALEWLALIYWDDDKRYSPSLKSRLTITKDTSKNQVVLTMTNMDPVDTATYYCAQHKVATIFDYWGQGTLVTVSS VL: QSALTQPPSASGSPGQSVTISCTATSSDVGNYNYVSWYQQHPGKAPKLMIYEVTKRPSGVPDRFSGSKSGNTASLTVSGLQAEDEADYYCSSYAGSWGVFGGGTKLTVLG | 18 nM | 0.0124 s⁻¹ | 0.9 min | 0.4 min | 0.4 | – | – | – | – | – | – | – | –
mAb14291 (antibody) heavy: not shown light: DIVMTQSPLSLPVTPGEPASISCRSSQSLLHSNGYNYINWYLQKPGQSPQLLMYLGSNRASGVPDRFSGSGSGTDSTLKISRVEAEDAGVYYCMQTRQTPYTFGQGTKLEIKRTVAAPSVFIFPPSDEQLKSGTASVVCLLNNFYPREAKVQWKVDNALQSGNSQESVTEQDSKDSTYSLSSTLTLSKADYEKHKVYACEVTHQGLSSPVTKSFNRGEC | – | – | – | – | – | 3.02e-10 M | 1.1 fold | 9.7 fold | – | – | – | – | –
mAb14295 (antibody) heavy: not shown light: DIQMTQSPSSLSASVGDRVTITCRASQSINTYLNWYQQKPGKAPNLLIDGASSLQSGVPSRFSGSGSGTDFILTISSLRPEDFATYYCQQSYSIPLTFGGGTRVEIKRTVAAPSVFIFPPSDEQLKSGTASVVCLLNNFYPREAKVQWKVDNALQSGNSQESVTEQDSKDSTYSLSSTLTLSKADYEKHKVYACEVTHQGLSSPVTKSFNRGEC | – | – | – | – | – | 1.93e-10 M | 1 fold | 11.5 fold | – | – | – | – | –
